± gives the uncertainty stated by the source.
B1: Chromodomain-helicase-DNA-binding protein 3, residues 374 to 426; numbered along this chain, Q12873 (parent)
chain: YETDHQDYCEVCQQGGEIILCDTCPRAYHLVCLDPELDRAPEGKWSCPHCEKE

Variants of: B1
Assay: abundance fitness (aPCA) (normalised: wild type 0, dead -1); higher = more abundant; growth selection in yeast, the domain comes from the species named
Conditions: Homo sapiens

E2D and E2S are within error of each other in abundance fitness: 0.327 ± 0.12 for the first, 0.125 ± 0.098 for the second.

Compared with E2V, E2F is higher in abundance fitness: -0.232 ± 0.089 for the first, 0.285 ± 0.13 for the second.

E2L and E2I are within error of each other in abundance fitness: 0.282 ± 0.09 for the first, 0.419 ± 0.1 for the second.

Going from V11L to V11H, the abundance fitness rises from 0.145 ± 0.073 to 0.362 ± 0.11.

Compared with V11K, V11W is lower in abundance fitness: 0.258 ± 0.087 for the first, -0.266 ± 0.089 for the second.

V11M and V11S are within error of each other in abundance fitness: 0.279 ± 0.083 for the first, 0.284 ± 0.068 for the second.

Going from V11Q to V11R, the abundance fitness rises from -0.217 ± 0.098 to 0.12 ± 0.072.

V11Y and V11N are within error of each other in abundance fitness: 0.085 ± 0.1 for the first, 0.182 ± 0.094 for the second.

V11C and V11F are within error of each other in abundance fitness: 0.184 ± 0.089 for the first, 0.138 ± 0.095 for the second.

V11D and V11E are within error of each other in abundance fitness: 0.178 ± 0.089 for the first, 0.277 ± 0.08 for the second.

Compared with V11T, V11A is lower in abundance fitness: 0.269 ± 0.078 for the first, -0.143 ± 0.079 for the second.

V11P and D7G are within error of each other in abundance fitness: 0.029 ± 0.087 for the first, -0.055 ± 0.14 for the second.

First: D7R
Second: D7P
The abundance fitness of the first is lower: -0.289 ± 0.13 for the first, 0.134 ± 0.26 for the second.

D7K and D7T are within error of each other in abundance fitness: -0.044 ± 0.15 for the first, -0.036 ± 0.19 for the second.

D7F and D7Q are within error of each other in abundance fitness: -0.37 ± 0.22 for the first, -0.146 ± 0.26 for the second.

D7A and D7S are within error of each other in abundance fitness: 0.043 ± 0.17 for the first, -0.154 ± 0.11 for the second.

First: D7Y
Second: D7H
The abundance fitness of the first is lower: -0.522 ± 0.23 for the first, -0.012 ± 0.24 for the second.

D7L and D7E are within error of each other in abundance fitness: -0.727 ± 0.22 for the first, -0.263 ± 0.25 for the second.

D7V and D7N are within error of each other in abundance fitness: -0.083 ± 0.15 for the first, 0.044 ± 0.1 for the second.

First: D7W
Second: D7M
The abundance fitness of the first is lower: -0.767 ± 0.33 for the first, -0.105 ± 0.29 for the second.

C9N and C9V are within error of each other in abundance fitness: -0.353 ± 0.15 for the first, -0.633 ± 0.14 for the second.

C9Y and C9F are within error of each other in abundance fitness: -0.74 ± 0.11 for the first, -0.975 ± 0.17 for the second.

C9Q and C9P are within error of each other in abundance fitness: -0.551 ± 0.15 for the first, -0.756 ± 0.14 for the second.

C9E and C9W are within error of each other in abundance fitness: -0.548 ± 0.21 for the first, -0.716 ± 0.13 for the second.

C9H and C9D are within error of each other in abundance fitness: -0.786 ± 0.17 for the first, -0.743 ± 0.19 for the second.

Going from C9A to C9K, the abundance fitness rises from -0.96 ± 0.18 to -0.425 ± 0.19.

C9R and C9L are within error of each other in abundance fitness: -0.62 ± 0.1 for the first, -0.681 ± 0.1 for the second.

First: C9G
Second: Y8A
The abundance fitness of the first is lower: -0.669 ± 0.14 for the first, 0.207 ± 0.11 for the second.

Source: the Human Domainome abundance scans (Beltran et al. 2025)
